No end group written: not given here.
How the values were obtained:
Thrombin = target: T1, Thrombin (Homo sapiens, UniProt P00734); assay: 30-mer library counter-screening MSP-MS, Thrombin; format: biochemical
T1 construct: purchased R&D Systems (Bio-techne) 2196-SE-200
Experimental: (§1) Protease specificity screening was performed using Multiplexed Substrate Profiling by Mass Spectrometry (MSP-MS), the method described in, e.g. O'Donoghue A. J. et al., Nat Methods., 2012; 9(11): 1095-1100. This method employs a physico-chemically diverse peptide library as substrates for proteases, and reactions are monitored over time with mass spectrometric detection of cleaved products. The resulting cleavages are assessed for specific cleavage in the enzyme-treated sample by comparison with results from a no-enzyme control incubation.
(§2) Enzymes were activated and assayed following the manufacturer's recommendations.
Thrombin was activated following the manufacturer's recommended conditions by pre-incubation with the enzyme with thermolysin for 15 min, and then the thermolysin was quenched with 1,10 phenanthroline treatment. Activated thrombin was assayed at 1.2 nM in activation buffer: 50 mM TRIS HCl, 10 mM CaCl2, 150 mM NaCl, 0.05% (w/v) Brij-35, pH 7.5.
(§3) Counter-screening was performed against the enzymes Thrombin, Factor Xa and Hepsin using this library as well, and for calibration of activity, a positive-control peptide bearing favorable motifs for these enzymes was also designed (ALU30-19).
(§4) Catalytic efficiency (kcat/KM) estimations were used to rank the top cleaved substrates in the MSP-MS reaction. Peptides were quantified by mass spectrometric label-free quantitation from the MS1 precursor ion peak areas for each peptide. Enzyme progress curves were modeled from six-time point measurements in GraphPad Prism. Data were fitted using non-linear least squares fitting to the first order kinetics equation:
(§5) [formula] where Y=percent product formation or substrate consumption, and t=time. The observed rate is a function of the enzyme concentration [E0], and an observed catalytic efficiency (kcat/KM) in units M^−1s^−1
(§6) Counter-screening with Thrombin, Factor Xa and Hepsin was also performed following the same analysis. The library peptide Alu30-19 was designed to include authentic sites for each enzyme, for comparison of overall cleavage efficiency as well as cleavage site specificity within each motif. The substrate designed for Factor Xa has the motif FNPR|TFGS (SEQ ID NO: 248), derived from the Factor Xa cleavage site in Thrombin. The substrate motif for Thrombin was FPR|, a common tool substrate motif. The substrate motif for hepsin was RKRR|GSRG (SEQ ID NO: 249) from filaggrin.

Hepsin = target: T2, Hepsin (Homo sapiens, UniProt P05981); assay: 30-mer library counter-screening MSP-MS, Hepsin; format: biochemical; conditions: for Apparent catalytic efficiency, hepsin: order of magnitude
T2 construct: purchased R&D Systems (Bio-techne) 4776-SE
T2 sequence (P05981 163-417 limits assumed): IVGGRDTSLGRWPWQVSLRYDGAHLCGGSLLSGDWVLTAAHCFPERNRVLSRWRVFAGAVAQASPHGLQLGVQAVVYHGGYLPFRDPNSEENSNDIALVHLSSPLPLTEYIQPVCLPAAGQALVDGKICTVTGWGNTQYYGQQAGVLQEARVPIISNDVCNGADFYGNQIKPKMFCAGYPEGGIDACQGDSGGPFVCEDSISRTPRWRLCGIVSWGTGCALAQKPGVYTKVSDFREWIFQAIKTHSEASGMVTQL
T2 sequence (P05981 1-162 partner limits assumed): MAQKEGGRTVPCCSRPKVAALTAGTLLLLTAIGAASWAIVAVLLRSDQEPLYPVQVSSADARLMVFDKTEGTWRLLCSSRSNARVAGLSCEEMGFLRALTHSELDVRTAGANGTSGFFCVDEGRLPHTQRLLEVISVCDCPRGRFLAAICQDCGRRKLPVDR
Experimental: as §1, §2
Hepsin was pre-activated overnight at 37° C. in the manufacturer recommended buffer: 100 mM TRIS, 10 mM CaCl2, 150 mM NaCl, 0.05% Brij-35, pH 8.0. Activity was measured with 2.4 or 24 nM enzyme in the buffer: 50 mM TRIS HCl at pH 7.4.
as §3, §4, §5, §6

FAPα = target: T3, FAPα (Homo sapiens, UniProt Q12884); assay: 30-mer tandem linker library MSP-MS, FAPα; format: biochemical
T3 construct: purchased R&D Systems (Bio-techne) 930-ADB-010
T3 sequence (Q12884 1-760): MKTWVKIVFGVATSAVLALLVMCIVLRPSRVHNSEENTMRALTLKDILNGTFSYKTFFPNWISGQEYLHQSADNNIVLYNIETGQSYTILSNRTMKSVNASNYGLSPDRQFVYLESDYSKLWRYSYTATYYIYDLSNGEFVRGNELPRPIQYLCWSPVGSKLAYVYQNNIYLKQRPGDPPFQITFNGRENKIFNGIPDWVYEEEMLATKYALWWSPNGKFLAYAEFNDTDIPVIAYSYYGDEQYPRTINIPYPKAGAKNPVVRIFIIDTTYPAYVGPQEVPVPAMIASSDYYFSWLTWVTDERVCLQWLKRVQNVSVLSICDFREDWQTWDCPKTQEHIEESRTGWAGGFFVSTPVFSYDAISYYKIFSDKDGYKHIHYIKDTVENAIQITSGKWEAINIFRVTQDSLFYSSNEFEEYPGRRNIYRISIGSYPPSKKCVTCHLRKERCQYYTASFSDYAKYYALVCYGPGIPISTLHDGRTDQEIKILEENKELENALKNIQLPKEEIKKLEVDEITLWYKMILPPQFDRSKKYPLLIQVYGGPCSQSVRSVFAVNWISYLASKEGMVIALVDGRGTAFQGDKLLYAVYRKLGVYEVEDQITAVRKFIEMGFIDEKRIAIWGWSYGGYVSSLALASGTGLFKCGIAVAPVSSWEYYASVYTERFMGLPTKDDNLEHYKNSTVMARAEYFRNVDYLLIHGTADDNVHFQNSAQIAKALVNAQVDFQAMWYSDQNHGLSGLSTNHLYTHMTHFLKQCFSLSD
Experimental: as §1, §2
FAPα activity was tested with fluorescence detection using a generic Z-GP-AMC substrate. For FRET assays, the final enzyme concentration was 5 nM and the buffer was 50 mM TRIS HCl, 1 M NaCl, 1 mg/mL BSA, pH 7.5.
To analyze the catalytic efficiency of candidate tandem linker designs, a tailored library approach using MSP-MS was applied. For the tailored library, a set of nineteen synthetic peptides, 30 amino acids in length (30-mers), were designed to test whether sequence context affects the efficiency of cleavage. Peptides were assayed in a multiplex format together as a substrate library with individual recombinant enzymes, using MSP-MS. For quantitative comparisons, kinetic analysis was performed over a time course, and results are reported either as a catalytic efficiency kcat/KM for well-behaved first-order kinetics, or as observed rates as kobs for more complex kinetic behavior.
as §4, §5

[1] = system: conditioned media from MC38, CT26, CT26 pLVX MMP9-5T4+dox and myofibroblast cell lines; assay: FRET end-point screen of conditioned media; format: biochemical, mouse; conditions: for Ratio of tumor vs control activity, end-point screen: three tumor cell lines vs myofibroblast cell line, complete (+FBS) media, 10 μM substrate
Source text: Proteolytic activity was screened in the conditioned media samples by fluorescent resonance energy transfer (FRET) assays with the substrates listed in Table 10.
(§7) Conditioned media and cell lysate samples were received from Charles River Laboratories for the murine colon cancer cell lines: MC38 (epithelial), CT26 (fibroblast), and CT26 transduced with a lentivirus for doxycyclin-inducible expression of MMP9 (CT26 pLVX MMP9-5T4+dox). An immortalized mouse intestinal myofibroblast cell line (ABM Good #T0565) was used as a control stromal cell line, grown under manufacturer recommended conditions. Conditioned media and cell lysate samples were also received for screening purposes from ABM Good for the immortalized mouse colonic epithelial cell line YAMC (ABM Good #T0567).
Conditioned media samples were prepared according to the standard protocol using logarithmic phase cells. Briefly, cells were grown for 16h in either serum-free media or in complete media containing 10% fetal bovine serum (FBS). After conditioned media collection, the adherent cells were washed then lysed on plate with non-denaturing lysis buffer to produce a lysed “cell pellet” to capture any activity that remained associated with the cells. All cell culture-derived conditioned media samples, cell lysates from Charles River Laboratories, and cell lysates derived internally were processed with identical methods, to allow comparison between samples.
The resulting conditioned media was buffer exchanged with PBS and concentrated to 10× the original titer as a stock solution.
FBS background controls were therefore used for baseline subtraction at each concentration of substrate throughout the FRET experiments.
(§8) In the end-point screening assays, a fixed titer of 10× concentrated sample and a substrate concentration of 10 μM was used. Values reported in the end-point experiments are initial velocity measurements, in relative fluorescence units (RFU) per second. End-point measurements are a starting point for a screen, but the rate of the reaction is non-linearly related to substrate concentration. Therefore, a more accurate representation of activity would be given by steady-state kinetic measurements covering a range of substrate concentrations. To compare activity across cell lines, the data were treated with a Michaelis-Menten model, and the concentration of equivalent enzyme units [E0] was solved.

[2] = system: conditioned media from tumor, myofibroblast and YAMC cell lines; assay: FRET steady-state kinetics of conditioned media (enzyme equivalents); format: biochemical, mouse; conditions: for Secreted activity in conditioned media, steady-state kinetics: tumor cell lines
Source text: as §7, §8
Accordingly, initial velocity was measured as a function of substrate concentration, using a 2-fold dilution series from 250 to 1 μM. Data were fitted using non-linear least squares fitting with GraphPad Prism software v 8.0 to the Michaelis-Menten equation:
[formula] where kcat is the rate of product formation under steady-state conditions in units (s^−1), and KM is the Michaelis constant that gives the substrate concentration in molar units (M) at which half maximum velocity of the reaction is produced for a given enzyme, [E0] is the enzyme concentration, and [S] the substrate concentration in (M).
In the assays where purified recombinant enzyme is used, the Michaelis-Menten parameters are as classically defined above. For conditioned media samples, the effective titer of conditioned media per assay was adjusted to approximately a 2× concentrate of the original unprocessed media samples to assure that the detection range matched the signal produced. The enzyme component in the calculation is redefined as a mixture of possible proteases that contribute to the cumulative observed activity, each with intrinsic reactivity toward a substrate. In this case, it is more appropriate to consider kcat and KM as macroscopic constants that represent the overall efficiency of catalysis, and E0 is an enzyme equivalent, expressed in units of concentration. To solve the data fit, kcat/KM can be fixed at that of the recombinant enzyme and enzyme equivalents per cell culture volume can be output. The effective titer of enzyme equivalents in this case can be used to compare the activity produced by the different cell lines.
An immortalized mouse colonic epithelial cell line (YAMC) was used to test activity in the presence of additional control “normal” epithelial cells. YAMC's are given the calculated enzyme equivalents (nM) resulting from all of these steady state experiments, to allow for comparison of the amount of equivalent activity per sample. For example, the YAMC control epithelial cell line produced activity with the ADAM17_2 substrate equivalent to that of 0.52±0.03 nM of ADAM17 recombinant enzyme. This cell line compares directly to MC38, also of epithelial origin, which had activity equivalent to that of 0.32±0.03 nM of ADAM17 recombinant enzyme. […] This cell line required non-standard cell culture conditions, including growth with murine IFNγ, and at low temperature to maintain, and may not be fully representative of epithelial cell lines.

GALFKSSFPSGGGPAGLYAQGGSGKGGSGK [Alu30-1]
Relative efficiency of 30-mer peptide cleavage by thrombin (Thrombin): most rapidly cleaved in the library

GGALFKSSFPGPAGLYAQPLAQKLKSSGGK [Alu30-13]
Relative efficiency of 30-mer peptide cleavage by thrombin (Thrombin): cleaved at lower efficiency

GGGALFKSSFPLAQKLKSSPGGPAGIGGGR [Alu30-8]
Apparent catalytic efficiency, hepsin (Hepsin): ~10^5 M^−1s^−1 | Relative efficiency of 30-mer peptide degradation by FAPα (FAPα): not cleaved

GGPLAQKLKSSALFKSSFPGPAGLYAQGGR [Alu30-12]
Relative efficiency of 30-mer peptide cleavage by thrombin (Thrombin): cleaved at lower efficiency | Apparent catalytic efficiency, hepsin (Hepsin): ~10^5 M^−1s^−1

GPAGLYAQ (also: Mca fluorophore and Dnp quencher, places not given here) [MMP14_1, FRET substrate with Mca fluorophore and Dnp quencher]
Substrate cleavage activity in the end-point screen ([1]; conditioned media): high activity | Substrate cleavage activity, control myofibroblast cell line ([1]; end-point screen, conditioned media): lowest activity | Ratio of tumor vs control activity, end-point screen [1]: approximately 57 fold | Secreted activity in myofibroblast conditioned media, steady-state kinetics [2]: not in the myofibroblast cell line | Secreted activity in conditioned media, steady-state kinetics [2]: significant measurable activity | Cleavage of motif by FAPα (FAPα; at PGGP|AGIG and GP|AGLYAQ respectively): able to cleave

GPAGMKGL (also: Mca fluorophore and Dnp quencher, places not given here) [MMP9_1, FRET substrate with Mca fluorophore and Dnp quencher]
Substrate cleavage activity in the end-point screen ([1]; conditioned media): high activity | Ratio of tumor vs control activity, end-point screen [1]: approximately 4 fold | Secreted activity in conditioned media, steady-state kinetics [2]: Secreted activity was measured

KGGGPAGLYAQGPAGLYAQGPAGLYAQGSR [Alu30-3]
Relative efficiency of 30-mer peptide cleavage by thrombin (Thrombin): most rapidly cleaved in the library | Relative efficiency of 30-mer peptide degradation by FAPα (FAPα): highest cleavage activity

KSGPGGPAGIGALFFSSPPLAQKLKSSGGR [Alu30-18]
Relative efficiency of 30-mer peptide cleavage by thrombin (Thrombin): lower cleavage activity

LAQKLKSS (also: Mca fluorophore and Dnp quencher, places not given here) [ADAM17_2, FRET substrate with Mca fluorophore and Dnp quencher]
Ratio of tumor vs control activity, end-point screen [1]: approximately 3 fold | Calculated enzyme equivalents (ADAM17 recombinant enzyme) ([2]; MC38): 0.32 ± 0.03 nM | Calculated enzyme equivalents (ADAM17 recombinant enzyme) ([2]; YAMC control epithelial cell line): 0.52 ± 0.03 nM | Secreted activity in myofibroblast conditioned media, steady-state kinetics [2]: essentially undetectable

LAQRLRSS (also: Mca fluorophore and Dnp quencher, places not given here) [ADAM17_1, FRET substrate with Mca fluorophore and Dnp quencher]
Relative efficiency of cleavage by hepsin (Hepsin): less efficiently cleaved than ADAM17_ 2

RGGALFKSSFPLAQKLKSSGPAGLYAQGGK [Alu30-14]
Apparent catalytic efficiency, hepsin (Hepsin): ~10^5 M^−1s^−1

RGGPAGLYAQGGPAGLYAQGGGPAGLYAQK [Alu30-4]
Relative efficiency of 30-mer peptide cleavage by thrombin (Thrombin): efficient substrate | Relative efficiency of 30-mer peptide degradation by FAPα (FAPα): highest cleavage activity

RGPGGPAGIGPLAQKLKSSALFKSSFPGGG [Alu30-9]
Apparent catalytic efficiency, hepsin (Hepsin): ~10^5 M^−1s^−1

RGPLAQKLKSSALFKSSFPGGPAGIGGGGK [Alu30-7]
Relative efficiency of 30-mer peptide degradation by FAPα (FAPα): not cleaved

Source: patent US11739132B2, “Separation moieties and methods of use thereof” (Werewolf Therapeutics, Inc., priority 2019, dated 2023)
